Assay results published in patent publication US20260078186A1 (HEFEI TG IMMUNOPHARMA, published 2026).

Assays:
[1] = target: T1, PD-L1 on the surface of tumor cells (human lung adenocarcinoma A549 cells, human melanoma A375 cells) (human, UniProt Q9NZQ7 19-290); assay: flow cytometry on A549 cells
T1 construct: whole, on cells; No PD-L1-negative control cell is described; also called PD-L1 protein on the surface of tumor cells
Description: 1 mL of PBS was added to the EP tube. […] The supernatant was discarded, and the system was washed again with PBS. […] The system was washed twice with PBS, and the supernatant was discarded after centrifugation. The cells were resuspended with 200 μL/tube PBS and detected by flow cytometry.

[2] = target: T2, Human PD-L1-Fc fusion protein (purchased from Acro) (human, UniProt Q9NZQ7 19-238); assay: ELISA, PD-L1-Fc coated at 1 µg/ml, anti-mouse IgG-HRP
T2 construct: extracellular domain; also called PD-L1 fusion protein; PD-L1 extracellular region protein; not shown: Fc part of the bought fusion protein
T2 sequence (Q9NZQ7 19-238): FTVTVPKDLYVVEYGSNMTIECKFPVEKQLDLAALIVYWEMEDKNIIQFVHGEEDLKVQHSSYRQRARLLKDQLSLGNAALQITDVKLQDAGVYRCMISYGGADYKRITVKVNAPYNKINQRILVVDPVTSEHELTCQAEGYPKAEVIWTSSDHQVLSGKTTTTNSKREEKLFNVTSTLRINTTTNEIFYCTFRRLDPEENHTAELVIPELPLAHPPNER

[3] = target: T2, Human PD-L1-Fc fusion protein …; assay: ELISA
[4] = target: T1, PD-L1 on the surface of tumor cells …; assay: flow cytometry on A375 and A549 cells
Description: Human melanoma A375 cells and human lung adenocarcinoma A549 cells were diluted to 1×10⁶ cells/mL with PBS and added to 1.5 mL EP tubes at 100 μL/tube. 10 μL/tube of rat serum was added and blocked at 4° C. for 30 minutes. […] 1 mL of PBS was added to the EP tube. The system was centrifuged at 4° C. and 3500 rpm for 5 min. The supernatant was discarded, and the system was washed again with PBS. After centrifugation, the supernatant was discarded, and the cells were resuspended with 100 μL/tube PBS. 1 μL/tube of Alexa-647-labeled rat anti-human secondary antibody (Biolegend) was added and incubated at 4° C. in the dark for 30 min. The system was washed twice with PBS, and the supernatant was discarded after centrifugation. The cells were resuspended with 200 μL/tube PBS and detected by flow cytometry.

[5] = target: T2, Human PD-L1-Fc fusion protein …; assay: ELISA, PD-L1-Fc coated at 1 µg/ml; h19B8 binds slightly more strongly than CD3×h19B8
Description: The PD-L1-Fc fusion protein was diluted to 1 μg/ml with PBS buffer, added to a 96-well plate at 100 μl/well, and placed at 4° C. overnight. The PBS buffer in the 96-well plate was removed, and the plate was washed 6 times with PBST (pH 7.2 PBS containing 0.1% Tween 20) buffer. PBS/10% BSA was added at 200 μl/well and incubated at 37° C. for 2 h for blocking. The blocking solution was removed, and the plate was washed 6 times with PBST. […] The reaction system was removed, and the plate was washed 6 times with PBST. HRP (horseradish peroxidase)-labeled anti-human IgG-Fab secondary antibody was diluted with PBST/0.05% BSA at 100 μl/well and incubated at 37° C. for 1 h. After washing the plate 6 times with PBST, 80 μl/well TMB (tetramethylbenzidine) was added and incubated at room temperature for 3 min. 4 M sulfuric acid was added at 80 μL/well to terminate the reaction. The absorbance was read at 450 nm using a microplate reader.

T1 sequence (Q9NZQ7 19-290): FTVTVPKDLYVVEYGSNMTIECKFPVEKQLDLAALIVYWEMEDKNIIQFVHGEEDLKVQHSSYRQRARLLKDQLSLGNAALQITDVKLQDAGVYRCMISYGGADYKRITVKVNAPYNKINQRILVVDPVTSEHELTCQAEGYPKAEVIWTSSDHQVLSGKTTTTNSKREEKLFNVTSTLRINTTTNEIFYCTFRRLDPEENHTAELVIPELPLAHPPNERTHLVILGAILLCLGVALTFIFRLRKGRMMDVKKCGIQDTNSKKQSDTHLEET

| binding result [1] | binding result [2] | binding result [3] | binding result [4] | binding result [5] | Binder |
| --- | --- | --- | --- | --- | --- |
| binds | binds | – | – | – | murine 19B8 antibody (19B8-mIgG1 heavy chain / 19B8-mK light chain) (antibody, Recombinant murine IgG1/kappa made in ExpiCHO-S cells; also called murine PD-L1 antibody 19B8; murine PD-L1 antibody (19B8)) heavy: EVQLQQSGPDLVKPGASVKISCKASGYSFTGYYMHWVKQSHVKSLEWIGRINPYNGATTYSQNFKDKASLTVDKSSSTAYMELHSLTSEDSAVYYCVPTGMGYFLMDYWGQGTSVTVSSAKTTPPSVYPLAPGSAAQTNSMVTLGCLVKGYFPEPVTVTWNSGSLSSGVHTFPAVLQSDLYTLSSSVTVPSSPRPSETVTCNVAHPASSTKVDKKIVPRDCGCKPCICTVPEVSSVFIFPPKPKDVLTITLTPKVTCVVVDISKDDPEVQFSWFVDDVEVHTAQTQPREEQFNSTFRSVSELPIMHQDWLNGKEFKCRVNSAAFPAPIEKTISKTKGRPKAPQVYTIPPPKEQMAKDKVSLTCMITDFFPEDITVEWQWNGQPAENYKNTQPIMNTNGSYFVYSKLNVQKSNWEAGNTFTCSVLHEGLHNHHTEKSLSHSPGK light: DIVMTQSHKFMSASVGDRVSITCKASQDVGSAVVWYRQKPGQSPKLLIYWASTRHTGVPDRFTGSGSGTDFTLTISNVQSEDLADYFCQQFTSYPTFGSGTRLEIKRADAAPTVSIFPPSSEQLTSGGASVVCFLNNFYPKDINVKWKIDGSERQNGVLNSWTDQDSKDSTYSMSSTLTLTKDEYERHNSYTCEATHKTSTSPIVKSFNRNEC |
| – | – | binds | binds | – | chimeric antibody 19B8-hIgG1LALA (19B8-hIgG1LALA heavy chain / 19B8-hK light chain) (antibody, Murine 19B8 variable regions on human IgG1 LALA / human kappa constant regions; also called 19B8 chimeric antibody; human-murine chimeric PD-L1 antibody) heavy: not shown light: DIVMTQSHKFMSASVGDRVSITCKASQDVGSAVVWYRQKPGQSPKLLIYWASTRHTGVPDRFTGSGSGTDFTLTISNVQSEDLADYFCQQFTSYPTFGSGTRLEIKRTVAAPSVFIFPPSDEQLKSGTASVVCLLNNFYPREAKVQWKVDNALQSGNSQESVTEQDSKDSTYSLSSTLTLSKADYEKHKVYACEVTHQGLSSPVTKSFNRGEC |
| – | – | – | binds | binds | humanized PD-L1 antibody h19B8-hIgG1LALA (h19B8-hIgG1LALA heavy chain / h19B8-hK light chain) (antibody, V domains shown, also called humanized 19B8 antibody; h19B8 monoclonal antibody) VH: QVQLVQSGAEVKKPGASVKVSCKASGYSFTGYYMHWVRQAPGQGLEWIGRINPYNGATTYSQNFKDRATMTVDTSISTAYMELSRLRSDDTAVYYCVPTGMGYFLMDYWGQGTLVTVSS VL: DIQLTQSPSFLSASVGDRVTITCKASQDVGSAVVWYQQKPGKAPKLLIYWASTRHTGVPSRFSGSGSGTEFTLTISSLQPEDFATYFCQQFTSYPTFGQGTKLEIKR |
